Data from the supplement of paper PMC7125110.
± gives the standard error. Fewer inactive variants are shown than the library holds.

B1: glmS ribozyme (parent)
chain: AUAAAAGCGCCAGAACUACAGAAAUGUAGUUGACGAGGAGGAGGUUUAUCGAAUUUUCGGCGGAUGCCUCCAAA

How the values were obtained:
Conditions in all cases: with glucosamine-6-phosphate
[1] = variants of: B1; experiment: self-cleavage kobs at 40 uM GlcN6P; higher = faster cleavage; RNA array
How it was run: (§1)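 kcat and KM were obtained from weighted Michaelis–Menten fits across concentrations of kobs values. Those came from one- or two-exponential decay fits to per-tile medians normalised to baseline and to non-cleaving reference variants. The variants were barcoded ribozymes transcribed in situ by E. coli RNA polymerase on sequenced MiSeq chips and tracked through a hybridised Cy3 probe at 37 °C, with 40 μM to 10 mM glucosamine-6-phosphate in HEPES/KCl/Mg(OAc)2 buffer flowed in.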

[2] = variants of: B1; experiment: self-cleavage kobs at 10000 uM GlcN6P; higher = faster cleavage; RNA array
How it was run: as §1

[3] = variants of: B1; experiment: self-cleavage kobs at 160 uM GlcN6P; higher = faster cleavage; RNA array
How it was run: as §1

[4] = variants of: B1; experiment: self-cleavage kobs at 640 uM GlcN6P; higher = faster cleavage; RNA array
How it was run: as §1

[5] = variants of: B1; experiment: self-cleavage kobs at 2500 uM GlcN6P; higher = faster cleavage; RNA array
How it was run: as §1

Variant	self-cleavage kobs at 40 uM GlcN6P [1] [s⁻¹]	self-cleavage kobs at 10000 uM GlcN6P [2] [s⁻¹]	self-cleavage kobs at 160 uM GlcN6P [3] [s⁻¹]	self-cleavage kobs at 640 uM GlcN6P [4] [s⁻¹]	self-cleavage kobs at 2500 uM GlcN6P [5] [s⁻¹]
A48C C68A	< 1e-05	< 1e-05	–	–	–
C34A	< 1e-05	–	< 1e-05	< 1e-05	< 1e-05
G41U G62U	< 1e-05	< 1e-05	< 1e-05	< 1e-05	< 1e-05
A12U U45C	0.000226 ± 3.6e-05	0.00628 ± 0.001	–	–	0.00428 ± 0.0016
U30A A42U U55C	< 1e-05	–	–	–	–
G29U C50G A53G U55G C67G	0.000349 ± 0.00015	–	–	–	–
A52G A53C U54A	< 1e-05	–	–	–	–
C10G G44U C68U C70U	< 1e-05	< 1e-05	–	–	–
A6G C16G	< 1e-05	3.38e-05 ± 8.1e-06	< 1e-05	< 1e-05	–
G38U C61U U69C C71G	6.15e-05 ± 2.4e-05	4.2e-05 ± 1.5e-05	–	–	–
G7A G51A C67A	< 1e-05	< 1e-05	–	–	–
G9C G13C G35C	< 1e-05	–	–	< 1e-05	–
G29C U30C A33C A42G U55A U56A	< 1e-05	< 1e-05	–	–	–
A6U A15G U31G G41A	< 1e-05	< 1e-05	–	–	–
A15G G35C C68A	< 1e-05	–	–	–	–
A33C G38A	< 1e-05	< 1e-05	< 1e-05	< 1e-05	< 1e-05
A12U U30A C70U	0.000748 ± 0.00013	0.0461 ± 0.017	–	–	–
G9A C11G A53G	< 1e-05	–	–	–	–
G7C G40C	< 1e-05	< 1e-05	–	–	< 1e-05
A15G A48U U57C	< 1e-05	< 1e-05	< 1e-05	–	< 1e-05
A6U C10A G38U	< 1e-05	< 1e-05	–	–	–
A14G G40U C50G	< 1e-05	–	–	–	–
C11U G32C C58U C70G	4.92e-05 ± 2.1e-05	–	–	–	–

Variant	self-cleavage kobs at 40 uM GlcN6P [1] [s⁻¹]	self-cleavage kobs at 10000 uM GlcN6P [2] [s⁻¹]	self-cleavage kobs at 160 uM GlcN6P [3] [s⁻¹]	self-cleavage kobs at 640 uM GlcN6P [4] [s⁻¹]	self-cleavage kobs at 2500 uM GlcN6P [5] [s⁻¹]
C11G A12C G38A	< 1e-05	–	–	–	–
G29U G63U	< 1e-05	< 1e-05	< 1e-05	< 1e-05	–
C10U A33C U47G G51U C58G A64U C70A	7.66e-05 ± 2.4e-05	0.000101 ± 2.1e-05	–	–	–
C11U A15C U46A	< 1e-05	–	< 1e-05	< 1e-05	–
A15U A36G U69G	3.94e-05 ± 1.7e-05	–	–	–	–
A33U A64U	< 1e-05	< 1e-05	–	< 1e-05	–
A15G U54A G62C U65A	< 1e-05	< 1e-05	–	< 1e-05	< 1e-05
C58A G60A	< 1e-05	< 1e-05	< 1e-05	–	–
A12U G29C	0.00079 ± 0.00011	0.0212 ± 0.0041	0.000653 ± 0.00013	0.00446 ± 0.00073	0.00717 ± 0.0026
G38U G44U U49C	< 1e-05	< 1e-05	–	–	–
A12G U47A G60A	< 1e-05	–	< 1e-05	< 1e-05	–
G7A U30A U45C	< 1e-05	< 1e-05	–	–	< 1e-05
A15U U56A	0.000156 ± 3.4e-05	0.00509 ± 0.00093	0.000209 ± 4.3e-05	0.00152 ± 0.00021	0.00224 ± 0.00059
G43A U69G	< 1e-05	< 1e-05	–	< 1e-05	–
G60U C68G	< 1e-05	< 1e-05	< 1e-05	< 1e-05	< 1e-05
A33G G59C	< 1e-05	< 1e-05	< 1e-05	< 1e-05	< 1e-05
A48U G59A	< 1e-05	< 1e-05	< 1e-05	< 1e-05	< 1e-05
G21U U46A	6.35e-05 ± 2.2e-05	0.00269 ± 0.00086	–	–	0.00271 ± 0.0012
C34U G59C	< 1e-05	< 1e-05	< 1e-05	< 1e-05	< 1e-05
G43U A64C	< 1e-05	< 1e-05	< 1e-05	< 1e-05	–
G9U C70U	< 1e-05	< 1e-05	< 1e-05	< 1e-05	–
C67G C70G	< 1e-05	< 1e-05	–	–	–
C11A G59A G60A A64U	< 1e-05	–	–	–	–
